Results as given in the supplement of paper PMC10567573.

B1: SPDEF (parent)
chain: FQELAGKELCAMSEEQFRQRSPLG
B2: CCND1 (parent)
chain: IRRAYPDANLLNDRVLRAMLKAEE

Variants of: B1
Experiment: protein stability index of a GFP-peptide fusion (GPS, HEK-293T) (PSI 1-6); higher = more stable
Conditions: c terminus: a fixed tail appended
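Note: lentivirally expressed fusions sorted by FACS into six bins by GFP to DsRed ratio, PSI derived from sequencing read proportions per bin multiplied by bin number.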

Variant	protein stability index
Q16M	2.23
Q16T	2.65
Q16V	2.28
Q16R	2.6
Q16F	2.13
Q16C	2.86
Q16W	1.92
F17C	3.14
F17Y	2.93
F17T	3.63
F17E	3.85
Q2C	2.36
Q2T	1.94
Q2L	2.12
Q2H	2.57
E14S	2.3
E14F	2.22
E14K	2.15
E14A	2.28
E14I	1.8
E14P	2.38
E14W	2.95
E14D	2.89
E14G	2.21
L4N	3.8
L4C	4.02

Variant	protein stability index
L4T	3.94
L4R	3
L4P	3.99
L4G	3.97
L4Y	2.61
L4F	2.84
L4H	3.85
G6M	2.46
G6R	2.58
G6S	2.53
G6H	2.73
P22S	2.92
P22V	2.87
P22Q	2.74
P22M	2.56
E15V	1.93
E15I	2.04
E15H	2.01
E15W	2.56
R18I	2.73
R18Q	2.81
R18H	2.64
R18G	2.9
R18S	2.82
R18K	2.46
C10S	3.4

Variant	protein stability index
C10P	4.32
C10D	4.38
C10W	1.9
C10N	3.1
C10K	2.67
C10G	3.05
K7A	2.58
K7M	2.97
K7F	2.18
K7Y	1.58
K7C	1.99
K7L	2.3
K7H	2.86
K7N	2.84
K7P	3.35
S13F	2.15
S13L	1.71
S13H	2.2
S13G	2.57
S13Y	2.4
S13D	2.89
S13P	3.18
S13T	2.69
L23N	3.46
L23V	3.09
L23W	1.69

Variant	protein stability index
L23D	2.8
L23H	3.18
L23Q	3.58
L23I	2.9
L23R	3.24
L23S	3.16
E8A	2.37
E8V	2.52
E8G	1.73
E8R	1.78
E8F	2.79
E8H	1.77
E8T	1.99
E8M	2.5
E8Y	1.89
E8S	2.12
L9E	4.93
L9Y	3.25
L9S	3.23
L9G	4.34
R20A	2.79
R20P	2.58
R20H	2.74
R20M	2.1
R20F	2.2
R20V	2.1

Variant	protein stability index
R20G	2.49
R20E	3.71
R20I	2.86
A5K	3.27
A5E	3.83
A5M	2.58
A5C	2.69
A5P	3.58
A5V	3.44
A11T	2.31
A11F	2.5
A11H	3.35
A11K	2.61
A11M	2.35
A11W	2.83
G24W	1.93
G24T	2.76
G24C	2.49
G24A	2.94
Q19F	2.23
Q19P	2.74
Q19E	4.17
Q19K	2.74
Q19G	2.53
F1C	3.9
F1E	5.36

Variant	protein stability index
F1S	4.61
F1L	4.45
F1T	4.55
F1M	3.98
F1W	2.93
F1N	4.72
E3R	3.33
E3L	2.22
E3T	2.22
E3S	2.34
E3V	2.44
E3H	3.36
M12V	2.83
M12I	2.46
M12A	3.57
M12Q	3.19
M12C	2.39
M12K	3.3
M12F	2.47
S21T	2.59
S21A	2.73
S21E	2.58

Variants of: B2
Experiment: as above
Conditions: c terminus: a fixed tail appended

Variant	protein stability index
D13V	1.54
D13T	2.52
D13M	2.66
D13R	3.68
D13P	2.61
D13W	2.35
D13L	2.02
D13N	2.02
D13Q	3.34
D13S	2.37
V15S	3.27
V15I	1.99
V15G	3.37
V15D	3.5
V15L	1.9
V15H	4.36
V15A	3.31
V15N	3.25
V15R	3.57
V15M	1.9
V15T	3.33
V15P	3.51
V15W	3.47

Variant	protein stability index
V15C	2.61
V15F	2.41
V15E	3.12
V15Q	4.11
A18Q	3.94
A18I	2.36
A18P	2.29
A18G	3.77
A18K	3.02
A18L	1.31
A18T	3.58
A18H	3.17
A18S	3.66
A18N	3.06
A18C	2.33
A18W	2.3
A18R	3.23
A18M	1.8
L16A	3.43
L16H	3.38
L16Q	3.53
L16P	4.08
L16Y	3.66

Variant	protein stability index
L16V	2.94
L16I	2.85
L16S	4.52
L16N	3.65
L16E	4.28
L16K	3.67
L16G	2.99
K21F	1.47
K21H	2.56
K21T	3.33
K21G	2.52
K21C	3.33
K21N	3.04
K21Q	1.89
K21L	3.01
K21P	3.85
K21M	1.76
K21E	2.73
K21S	2.72
K21R	2.79
K21V	2.93
K21I	2.38
K21A	2.35

Variant	protein stability index
K21W	1.83
M19P	3.79
M19D	4.26
M19R	3.15
M19F	3.26
M19V	3.61
M19N	4.92
M19A	3
M19C	3.48
M19W	3.96
M19E	3
M19H	3.54
M19T	3.38
M19K	3.92
M19Q	3.52
R17P	3.46
R17W	1.74
R17Q	2.68
R17F	2.1
R17I	1.82
R17E	2.22
R17Y	3.4
R17C	2.46

Variant	protein stability index
R17L	3.01
R17S	2.72
R17N	2.61
R17T	3.47
R17H	2.31
R17V	1.72
R17D	2.12
R17M	3.21
E24W	1.52
E24F	1.55
E24A	3.57
E24R	2.02
E24T	2.33
E24D	2.67
E24M	1.87
E24N	2.7
E24Y	1.35
E24K	2.05
E24C	2.08
E24L	1.8
E24I	3
E24H	2.04
E24V	1.23

Variant	protein stability index
E24P	2.39
E24S	3.28
L20R	3.03
L20H	2.55
L20T	3.12
L20G	4.01
L20N	3.45
L20W	2.32
L20S	3.69
L20Q	2.58
L20P	4.68
L20A	3.3
L20I	3.55
L20K	3.25
L20M	2.87
L20Y	2.9
L20E	4.09
L20F	2.63
L20D	4.05
A22K	3.27
A22L	1.78
A22Q	2.64
A22E	3.08

Variant	protein stability index
A22M	2.41
A22H	2.8
A22P	3.69
A22W	2.74
A22S	2.37
A22T	2.8
A22R	2.3
A22N	2.86
A22F	1.92
A22I	2.1
A22V	2.21
A22Y	2.43
A22D	2.73
R14T	3.07
R14H	1.74
R14M	2.81
R14Y	1.84
R14Q	2.29
R14E	2.84
R14A	2.3
R14F	2.56
R14L	1.99
R14G	1.96

Variant	protein stability index
R14I	1.03
R14C	2.41
R14K	1.83
R14D	1.56
E23R	2.37
E23N	2.18
E23D	2.42
E23F	1.62
E23Q	3.18
E23T	2.61
E23K	2.75
E23M	2.3
E23S	2.3
E23Y	2.45
E23I	1.21
E23A	1.87
E23C	1.92
E23V	1.8
E23H	1.62
E23W	1.84
E23L	3.39
